Test results published in US20260216242A1 (ALMAC DISCOVERY, published 2026).

T1: human ALPL on CHO cells (human, UniProt P05186 18-501)
T1 construct: whole, on cells; also called CHO-ALPL
T1 sequence (looked up): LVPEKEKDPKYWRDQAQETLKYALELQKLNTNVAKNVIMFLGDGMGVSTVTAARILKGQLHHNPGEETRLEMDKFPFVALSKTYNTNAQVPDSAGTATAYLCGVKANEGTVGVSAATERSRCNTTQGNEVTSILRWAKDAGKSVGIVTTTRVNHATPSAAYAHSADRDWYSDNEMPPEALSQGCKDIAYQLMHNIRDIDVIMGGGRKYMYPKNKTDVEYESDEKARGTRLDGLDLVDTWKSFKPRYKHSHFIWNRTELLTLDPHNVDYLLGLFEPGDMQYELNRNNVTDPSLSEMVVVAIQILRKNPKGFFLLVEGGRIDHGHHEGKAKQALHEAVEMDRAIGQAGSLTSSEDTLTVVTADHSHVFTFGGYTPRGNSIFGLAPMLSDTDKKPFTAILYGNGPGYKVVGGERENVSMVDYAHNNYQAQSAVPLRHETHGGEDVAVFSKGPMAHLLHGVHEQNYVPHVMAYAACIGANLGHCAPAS


Target: T1, human ALPL on CHO cells
Experiment: flow cytometry, CHO cells stably expressing human ALPL; PDC detected with FITC anti-human Ab
Description: Biparatopic VHH-hFc drug conjugates were assessed for human ALPP, ALPPL2, ALPI and ALPL cell-surface binding by flow cytometry. Binders were screened on CHO cells stably expressing human ALPP, ALPPL2, ALPI or ALPL.
Cell surface binding of test agents to hALPP isoforms was characterized in four CHO-ALPP isoform transfectant cell lines (CHO-ALPP, CHO-ALPPL2, CHO-ALPI and CHO-ALPL) and the resulting KDapp values determined. Adherent cells were detached from tissue culture flasks by incubating with 0.1% EDTA/PBS solution at 37° C. for […] or until cells detached easily. Cells were re-suspended in ice-cold PBS/2% FCS in 15 ml tubes and centrifuged at 1700 rpm for 5 mins at 4° C. Supernatant was removed and the cell pellet re-suspended in PBS/2% FCS. […] Cells were incubated with 100 μl of test agents at a range of concentrations, plus controls for 1 hr on ice. The sample plate was centrifuged at 1700 rpm for 5 mins at 4° C. The supernatant was removed, and a wash performed by re-suspending the cell pellets in 0.25 mL of ice-cold PBS/2% FCS using a multichannel pipette. Samples were again centrifuged at 1700 rpm for 5 min at 4° C. Supernatant was removed and two further washes performed as described. After the final wash and centrifugation step, excess liquid was removed by blotting the plate on tissue paper. Binding of VHH-hFc agents was determined by adding 100 μl of Fitc-anti-human Ab (ThermoFisher) and incubating for 30 mins on ice in the dark. Wash steps were performed as described previously. All cell pellets were finally re-suspended in 0.28 ml of ice-cold PBS/2% FCS and left on ice in the dark prior to analysis on a Merck-Millipore Guava EasyCyte HT or Thermo Fisher Attune N×T flow cytometer.

binding result | Binder
no binding (tested: 350 nM) | A06-E06 hFc-vcPAB-MMAE [G4S]3 (Fc fusion, DAR 4, MC-vc-PAB-MMAE on Cys 239 and Cys 442 (EU numbering), Biparatopic drug conjugate, DAR 4; also called #639) chain 1: QVHLVESGGGLVQAGGSLRLSCAASGRTFLSMGWFRQAPGKEREFVAAISWTGGSTGYADSVKGRFTISRESDKETMYLQMNSLKPEDTAVYYCAARGDVYYGGDDATRYKYWGQGTQVTVSSGGGGSGGGGSGGGGSEPKSSDKTHTCPPCPAPELLGGPCVFLFPPKPKDTLMISRTPEVTCVVVDVSHEDPEVKFNWYVDGVEVHNAKTKPREEQYNSTYRVVSVLTVLHQDWLNGKEYKCKVSNKALPAPIEKTISKAKGQPREPQVYTLPPSRDELTKNQVSLYCLVKGFYPSDIAVEWESNGQPENNYKTTPPVLDSDGSFFLYSKLTVDKSRWQQGNVFSCSVMHEALHNHYTQKSLCLSPGK chain 2: QVHLVESGGGLVQAGGSLRLSCAASRRSFSEYAMGWFRQAPGKEREFVAAIGWSGVIEYADSVKGRFTISRDNAKDTVYLQMNSLKPEDTAVYYCAAGLGIRVVSQTPAYWGQGTQVTVSSGGGGSGGGGSGGGGSEPKSSDKTHTCPPCPAPELLGGPCVFLFPPKPKDTLMISRTPEVTCVVVDVSHEDPEVKFNWYVDGVEVHNAKTKPREEQYNSTYRVVSVLTVLHQDWLNGKEYKCKVSNKALPAPIEKTISKAKGQPREPQVYTLPPSRDELTKNQVSLTCLVKGFYPSDIAVEWESNGQPENNYKTTPPVLDSDGSFFLTSKLTVDKSRWQQGNVFSCSVMHEALHNHYTQKSLCLSPGK
no binding (tested: 350 nM) | A06-F05 hFc-vcPAB-MMAE [G4S]3 (Fc fusion, DAR 4, MC-vc-PAB-MMAE on Cys 239 and Cys 442 (EU numbering), Biparatopic drug conjugate, DAR 4) chain 1: QVHLVESGGGLVQAGGSLRLSCAASGRTFLSMGWFRQAPGKEREFVAAISWTGGSTGYADSVKGRFTISRESDKETMYLQMNSLKPEDTAVYYCAARGDVYYGGDDATRYKYWGQGTQVTVSSGGGGSGGGGSGGGGSEPKSSDKTHTCPPCPAPELLGGPCVFLFPPKPKDTLMISRTPEVTCVVVDVSHEDPEVKFNWYVDGVEVHNAKTKPREEQYNSTYRVVSVLTVLHQDWLNGKEYKCKVSNKALPAPIEKTISKAKGQPREPQVYTLPPSRDELTKNQVSLYCLVKGFYPSDIAVEWESNGQPENNYKTTPPVLDSDGSFFLYSKLTVDKSRWQQGNVFSCSVMHEALHNHYTQKSLCLSPGK chain 2: QVQLVESGGGLVQAGGSLRLSCAASGRAFGDYNIGWFRQAPGKEREFVARRTWDGSSTRYDDSVKGRFTVSIDNAKNTAYLQMNSLKTEDTAVYYCAAGRYSRVRGWEYDYWGQGTQVTVSSGGGGSGGGGSGGGGSEPKSSDKTHTCPPCPAPELLGGPCVFLFPPKPKDTLMISRTPEVTCVVVDVSHEDPEVKFNWYVDGVEVHNAKTKPREEQYNSTYRVVSVLTVLHQDWLNGKEYKCKVSNKALPAPIEKTISKAKGQPREPQVYTLPPSRDELTKNQVSLTCLVKGFYPSDIAVEWESNGQPENNYKTTPPVLDSDGSFFLTSKLTVDKSRWQQGNVFSCSVMHEALHNHYTQKSLCLSPGK

More lines, now with the values behind:

Binder | binding result
A06-E10 hFc-vcPAB-MMAE [G4S]3 (Fc fusion, DAR 4, MC-vc-PAB-MMAE on Cys 239 and Cys 442 (EU numbering), Biparatopic drug conjugate, DAR 4) chain 1: QVHLVESGGGLVQAGGSLRLSCAASGRTFLSMGWFRQAPGKEREFVAAISWTGGSTGYADSVKGRFTISRESDKETMYLQMNSLKPEDTAVYYCAARGDVYYGGDDATRYKYWGQGTQVTVSSGGGGSGGGGSGGGGSEPKSSDKTHTCPPCPAPELLGGPCVFLFPPKPKDTLMISRTPEVTCVVVDVSHEDPEVKFNWYVDGVEVHNAKTKPREEQYNSTYRVVSVLTVLHQDWLNGKEYKCKVSNKALPAPIEKTISKAKGQPREPQVYTLPPSRDELTKNQVSLYCLVKGFYPSDIAVEWESNGQPENNYKTTPPVLDSDGSFFLYSKLTVDKSRWQQGNVFSCSVMHEALHNHYTQKSLCLSPGK chain 2: QVQLVESGGGLVQAGGSLRLSCAVSGRALSDYNIGWFRQAPGKEREFVARKTWDGSSTRYDDSVKGRFTVSIEDAKNTAYLQMSSLKTEDTAVYYCAAGRYSRARGWEYDYWGQGTQVTVSSGGGGSGGGGSGGGGSEPKSSDKTHTCPPCPAPELLGGPCVFLFPPKPKDTLMISRTPEVTCVVVDVSHEDPEVKFNWYVDGVEVHNAKTKPREEQYNSTYRVVSVLTVLHQDWLNGKEYKCKVSNKALPAPIEKTISKAKGQPREPQVYTLPPSRDELTKNQVSLTCLVKGFYPSDIAVEWESNGQPENNYKTTPPVLDSDGSFFLTSKLTVDKSRWQQGNVFSCSVMHEALHNHYTQKSLCLSPGK | no binding (tested: 350 nM)
A06-E06-hFc-vcPAB-MMAE [G4S]1 (Fc fusion, DAR 4, MC-vc-PAB-MMAE on Cys 239 and Cys 442 (EU numbering), Biparatopic drug conjugate, DAR 4; also called #710) chain 1: QVHLVESGGGLVQAGGSLRLSCAASGRTFLSMGWFRQAPGKEREFVAAISWTGGSTGYADSVKGRFTISRESDKETMYLQMNSLKPEDTAVYYCAARGDVYYGGDDATRYKYWGQGTQVTVSSGGGGSEPKSSDKTHTCPPCPAPELLGGPCVFLFPPKPKDTLMISRTPEVTCVVVDVSHEDPEVKFNWYVDGVEVHNAKTKPREEQYNSTYRVVSVLTVLHQDWLNGKEYKCKVSNKALPAPIEKTISKAKGQPREPQVYTLPPSRDELTKNQVSLYCLVKGFYPSDIAVEWESNGQPENNYKTTPPVLDSDGSFFLYSKLTVDKSRWQQGNVFSCSVMHEALHNHYTQKSLCLSPGK chain 2: QVHLVESGGGLVQAGGSLRLSCAASRRSFSEYAMGWFRQAPGKEREFVAAIGWSGVIEYADSVKGRFTISRDNAKDTVYLQMNSLKPEDTAVYYCAAGLGIRVVSQTPAYWGQGTQVTVSSGGGGSEPKSSDKTHTCPPCPAPELLGGPCVFLFPPKPKDTLMISRTPEVTCVVVDVSHEDPEVKFNWYVDGVEVHNAKTKPREEQYNSTYRVVSVLTVLHQDWLNGKEYKCKVSNKALPAPIEKTISKAKGQPREPQVYTLPPSRDELTKNQVSLTCLVKGFYPSDIAVEWESNGQPENNYKTTPPVLDSDGSFFLTSKLTVDKSRWQQGNVFSCSVMHEALHNHYTQKSLCLSPGK | no binding (tested: 350 nM)
A06-E10-hFc-vcPAB-MMAE [G4S]1 (Fc fusion, DAR 4, MC-vc-PAB-MMAE on Cys 239 and Cys 442 (EU numbering), Biparatopic drug conjugate, DAR 4; also called #711) chain 1: QVHLVESGGGLVQAGGSLRLSCAASGRTFLSMGWFRQAPGKEREFVAAISWTGGSTGYADSVKGRFTISRESDKETMYLQMNSLKPEDTAVYYCAARGDVYYGGDDATRYKYWGQGTQVTVSSGGGGSEPKSSDKTHTCPPCPAPELLGGPCVFLFPPKPKDTLMISRTPEVTCVVVDVSHEDPEVKFNWYVDGVEVHNAKTKPREEQYNSTYRVVSVLTVLHQDWLNGKEYKCKVSNKALPAPIEKTISKAKGQPREPQVYTLPPSRDELTKNQVSLYCLVKGFYPSDIAVEWESNGQPENNYKTTPPVLDSDGSFFLYSKLTVDKSRWQQGNVFSCSVMHEALHNHYTQKSLCLSPGK chain 2: QVQLVESGGGLVQAGGSLRLSCAVSGRALSDYNIGWFRQAPGKEREFVARKTWDGSSTRYDDSVKGRFTVSIEDAKNTAYLQMSSLKTEDTAVYYCAAGRYSRARGWEYDYWGQGTQVTVSSGGGGSEPKSSDKTHTCPPCPAPELLGGPCVFLFPPKPKDTLMISRTPEVTCVVVDVSHEDPEVKFNWYVDGVEVHNAKTKPREEQYNSTYRVVSVLTVLHQDWLNGKEYKCKVSNKALPAPIEKTISKAKGQPREPQVYTLPPSRDELTKNQVSLTCLVKGFYPSDIAVEWESNGQPENNYKTTPPVLDSDGSFFLTSKLTVDKSRWQQGNVFSCSVMHEALHNHYTQKSLCLSPGK | no binding (tested: 350 nM)
A06-F05-hFc-vcPAB-MMAE [G4S]1 (Fc fusion, DAR 4, MC-vc-PAB-MMAE on Cys 239 and Cys 442 (EU numbering), Biparatopic drug conjugate, DAR 4) chain 1: QVHLVESGGGLVQAGGSLRLSCAASGRTFLSMGWFRQAPGKEREFVAAISWTGGSTGYADSVKGRFTISRESDKETMYLQMNSLKPEDTAVYYCAARGDVYYGGDDATRYKYWGQGTQVTVSSGGGGSEPKSSDKTHTCPPCPAPELLGGPCVFLFPPKPKDTLMISRTPEVTCVVVDVSHEDPEVKFNWYVDGVEVHNAKTKPREEQYNSTYRVVSVLTVLHQDWLNGKEYKCKVSNKALPAPIEKTISKAKGQPREPQVYTLPPSRDELTKNQVSLYCLVKGFYPSDIAVEWESNGQPENNYKTTPPVLDSDGSFFLYSKLTVDKSRWQQGNVFSCSVMHEALHNHYTQKSLCLSPGK chain 2: QVQLVESGGGLVQAGGSLRLSCAASGRAFGDYNIGWFRQAPGKEREFVARRTWDGSSTRYDDSVKGRFTVSIDNAKNTAYLQMNSLKTEDTAVYYCAAGRYSRVRGWEYDYWGQGTQVTVSSGGGGSEPKSSDKTHTCPPCPAPELLGGPCVFLFPPKPKDTLMISRTPEVTCVVVDVSHEDPEVKFNWYVDGVEVHNAKTKPREEQYNSTYRVVSVLTVLHQDWLNGKEYKCKVSNKALPAPIEKTISKAKGQPREPQVYTLPPSRDELTKNQVSLTCLVKGFYPSDIAVEWESNGQPENNYKTTPPVLDSDGSFFLTSKLTVDKSRWQQGNVFSCSVMHEALHNHYTQKSLCLSPGK | no binding (tested: 350 nM)
